Measurements from the DeepSol protein solubility set.

Experiment: soluble on expression in E. coli; label from the status in PepcDB or PDB records

Sequence | soluble on expression in E. coli
MSLEPATAPRPDMAPELTPEEEQATKQFLEEINKWTVQYNVSPLSWNVAVKFLMARKFDVLRAVELFHCYRETRRKEGIVKLKPHEEPLRSEILSGKFTILNVRDPTGASIALFTARLHHPHKSAQHVVLQALFYLLDRAVDSFETQRNGLVFIYDMCGSNYANFELDLGKKVLNLLKGAFPARLKKVLIVGAPIWFRVPYSIISLLLKDKVRERIQILKTSEVTQHLPRECLPENLGGYVKIDLATWNFQFLPQVNGHPDPFDEIILSSLPPAEGHHHHHH | soluble
MSLEQYFKRFLGEENAYFDEIHKRAYSYDATKKHYLPDGVLFPRNEEDIARILKFCNENNIIVIPRGSGSGFTGGALAVNGGVVLAFEKHMNKILEIDLENLVAVVQPGVINIHLQKEVAKYGLFYPPDPASMEYSSLGGNVSENAGGMRAAKYGITKDYVMALRAVLPSGEIIRAGKRTIKDVAGYNLAGILIASEGSLAVLSELTLKLIPLPKFKKTAFAIFPSVKSAMNAVYKSLASGVSPVSMEFLDNLSIRAVESKFNKGLPIEAGAILIADVDGNVKEAIDEDLRNLEHYFLEAGASEFKIAKDEQETADIWFARRNCSQSIAMYGTLKLNEDITVPRSKLPTLLEGIDEISKKYGFKIPCFGHTGDGNVHTNVMVPDKNDKEQVKKGYEAVEEIFKLTVKLGGTLSGEHGIGLSKAPFMNLAFSEAEMNLMRNIKKAFDPNNILNPFKMGLEGHHHHHH | soluble
MSLERKLEIVKTKTENYTIKVDGVFIHSKYDPLREAETFAIKNIELIKNSRYIVIYGFGLGYHIEAVLRHMNEESMLAVFDADLEVIKEAKKQSLYKKLIKNPRLKCFFDYGDEFLKEFSKSLSLAKNIIIYRPSLKVLPEEFGHMARLLKGYELAKIEIEKHGKLAEYNYDMNLKKTHKKMQDFLSFYSFGCENIVLVSSGPSLDYNIESLKKVRDRVKIFCAGSAAEFLIKNHIIPDMICIIDPQDIVYTQLQSILNKNIPLCFLSSACSRVVSEWSGEKFLFFNDFNAARENNDVVVETGKSVATAILSIAVLKKPKKVIFIGQDLAYLNGKSHHDNYGSSQSSGIKKVRSVDGEYLETNEGFLYFKSWIEQKIMKSKDIEFINCSSGAEIKGTIASKLIDAIKEGHHHHHH | soluble
MSLESENIISAADKARILAEALPYIRRFSGSVAVIKYGGNAMTEPALKEGFARDVVLLKLVGIHPVIVHGGGPQINAMLEKVGKKGEFVQGMRVTDKEAMDIVEMVLGGHVNKEIVSMINTYGGHAVGVSGRDDHFIKAKKLLIDTPEQNGVDIGQVGTVESIDTGLVKGLIERGCIPVVAPVGVGEKGEAFNINADLVAGKLAEELNAEKLLMMTNIAGVMDKTGNLLTKLTPKRIDELIADGTLYGGMLPKIASAVEAAVNGVKATHIIDGRLPNALLLEIFTDAGIGSMILGGGEDAEGHHHHHH | soluble
MSLESSDVPRELIESIKDVIGRKIKISVKKKVKLEVKGDKVENKVLVLTSCRAFLVTARIPTKLELTFSYLEIHGVVCSKSAQMIVETEKCSISMKMASPEDVSEVLAHIGTCLRKIFPGLSPVRIMKKVSMEPSERLASLQALWDSQTVAEQGPCGGFSQMYACVCDWLGFSYREEVQWDVDTIYLTQDTRELNLQDFSHLDHRDLIPIIAALEYNQWFTKLSSKDLKLSTDVCEQILRVVSRSNRLEELVLENAGLRTDFAQKLASALAHNPNSGLHTINLAGNPLEDRGVSSLSIQFAKLPKGLKHLNLSKTSLSPKGVNSLSQSLSANPLTASTLVHLDLSGNVLRGDDLSHMYNFLAQPNAIVHLDLSNTECSLDMVCGALLRGCLQYLAVLNLSRTVFSHRKGKEVPPSFKQFFSSSLALMHINLSGTKLSPEPLKALLLGLACNHNLKGVSLDLSNCELRSGGAQVLEGCIAEIHNITSLDISDNGLESDLSTLIVWLSKNRSIQHLALGKNFNNMKSKNLTPVLDNLVQMIQDEESPLQSLSLADSKLKTEVTIIINALGSNTSLTKVDISGNGMGDMGAKMLAKALQINTKLRTVIWDKNNITAQGFQDIAVAMEKNYTLRFMPIPMYDASQALKTNPEKTEDALQKIENYLLRNHETRKEGHHHHHH | soluble
MSLESYVPNNEAKFPENISYGSMGGPTFSTVISELGGGKEQRKVNWTHSRNRYNVAYNTASSDQCSALISFFYAHRGKALPFRFKDWSDYTATGQNIGVGDGKSLNFQLVKRYHAGQYSYVRKISRPVVGTVKMSLGEVSQEYERDYSVDYNSGVVTFAVPPAHNATIHADFEFDVLVRFDTDFLAFAMEAHGNYGCHGVSLVEVSEEGHHHHHH | soluble
MSLETKVAARDLSSLLSHCEAPVAALTVTAFKCKASACSVAPAPGSNTGLGALMSMAQAAQGLQTFPNIGDGLSNALTTALKTTGCFKVMAREDFEDLRREAEAAGITLKSASADYLVTGAITSLAVGAKTQSFGGGFVPLVGAVSRSTKSANISIDVRLVDVKASEVKASQTFDVSNERSSWGAGGAGWGGSGALFGAASSTQSPELDSVANESVIQAANYIVTQVAGSAAIPPVAAITKEGHHHHHH | not soluble
MSLETTHSFGDRAVFAFGKHTGKIFKYAPRVLKDQDPEDLHQLRVGVRRLRTAVIGFMPAVQLPQGITERKIGKIGQQLGVQRDNDVLQEILLHKYLPHLPTSEQGCLEKVLKRLQKERKQAFKATYKLLTHDKFTQFKQSWEIWLEHPHFTSLGGLAIADVLPDLLLPQLSQFFLHPGWLVGTEIDPDTNSSNRQRRCIDLSPTAIETLLDGEESILHDLRKEAKRTRYQMELFSDYFGEEYQQLLAQVKMTQEILGNLQDSFVLRAMVEQYLDVDLKQLCPQWSAIFHGDRLGYWDQWQPLQSQFIDPVYRHHCRQLVQNPLVNSDQPTSSNLEGHHHHHH | soluble
MSLETVLVPVDFTIEKEDLLGCIGEFKNAGLKKVILLHVVDIHKSQGLAPMFERNAKKRIEDYTGFAEELGLETEALVVVGDIKRTISETADRKNVDAIIMGATAKGFIKGRFLGRTTEHIARSSKKILLVEKYDALKEGKEFYKNACRATFSRVLVPLDFSKESMKAIEQLQEFGGIVKEVLLLHVIDNIKDMDLLDEQREEAKGKLGRIKEQLTGIKSQYLVVEGIPSDEIVKFANIEEATMIMLTSRGKGDLIDLILGSTAESVLRKTIKPVLIIPASKEFDGEEGHHHHHH | soluble
MSLEVNVEGKLEAMQAVVGAKAVPFAGTQAEPIQIAMIYPSADTSDFWARNYIAMTKRLEELGIQFETTEFASRQIEHSLQSTYANQVVQDADLYDFVIFGPSELAIQADNIDKMAASEGFSTFVWAFHTPLKDLKNQPDGWFDFSSAAGALTMCDYMLGRLGNDVTMAMNRGIPGITDDQRSGDFKACVEEKGNWTTIYEHYGEYQREGGFEGTSLILQAYPEATVIHNANTAMAMGSVEAQISVGKEKEVFSTGWGGTGLELDAIRRGELDATPMRMGDDVGAATAEAIKAHLEGRSDELPFVFLGRITVAHDQMSAEEIDALEAEAFRFSGVGALEREGHHHHHH | not soluble
MSLFAAQYIGNKSFNVVEGHAIAPQAGEVRLDVGYVGICGTDMHIYHGVMDQRVSIPQTIGHEISGVVAQIGEGVEGFTVGEKVVVRPLDWCGECPTCEAGLTHICQNLKFMGIDTPGAFQSSWTVKARTLHKLPAGVDLKQGALVEPLSVACHDVRRSRLKAGEKAVILGGGPIGQLVAAVAKSVGAEVLVSEPNDSRREFADELGVKSVNPMDTDLAAYVDQWTGTKGADVVFEVSGVLPAIQSMTQIAGRRGRIVMVAIHSTAPPIDLFQFFWKELELLGARVYEAADFDWAIELIASGQIDLKPFISSVSPLADIGSAFANMDGNPQGMKALVECNAEEGHHHHHH | soluble
MSLFHREDFSKALLKKALQPGMRVMDIGCGSGELTRLAADIVGKEGDVVGIDINEQLLWQARHDNGYANVSYQNADLAALSSFETKSFDAIIGRRVLMYQKDPKKVIESLTPLLKPNGFYVFQESDAMCLELAKPSFVNMNKIQSLIWQTVEKEGGHIHIGSQLEQLMLEAGLIVDHFVSENVIQTSQTGTDLSWLLNIMKERIQKYSDLQGLEDVNLQKELEENNDHFIRDCQFGIISHRVDEGHHHHHH | soluble
MSLFKEERTMTNYTVDTLNLGKFITESGEVIDNLRLRYEHVGYHGQPLVVVCHALTGNHLTYGTDDYPGWWREIIDGGYIPIHDYQFLTFDVIGSPFGSSSPLNDPHFPKKLTLRDIVRANERGIQALGYDKINILIGGSLGGMQAMELLYNQQFEVDKAIILAATSRTSSYSRAFNEIARQAIHLGGKEGLSIARQLGFLTYRSSKSYDERFTPDEVVAYQQHQGNKFKEHFDLNCYLTLLDVLDSHNIDRGRTDVTHIFKNLETKVLTMGFIDDLLYPDDQVRALGERFKYHRHFFVPDNVGHDGFLLNFSTWAPNLYHFLNLKHFKRKEGHHHHHH | soluble
MSLFPNYEFSFRPIARKFVRSLVTSHGIWEVREAIILRLTDTTGKVGWGEIAPISWFGSETLAQALDFCRQLPEEITQEIIFSIPDDLPACQFGFESALEAMGSGEDVTITNAQFSALLPAGEAALHQWQSLWDEGYRTFKWKIAVGEVAQELRIFDSLTQILPASAKLRLDANGGLSYPEAHLWLQACDNLPVEVEFIEQPLPVEQFSQMLELSEAYPTAIALDESVANLKQLAACYAQGWRDVFVIKPAIAGSPSRLRQFCQQHEIDAVFSSVFETAIARKASLQLAAELSRDNRAVGFGVNHLFHQEAENWLQSLWNNPEGHHHHHH | soluble
MSLFPSSEVEAKRTTLNLELESNTDRLLQEKDDLLPQSVTNSSDEGTPFAQVEGASDDNTAEQDSDKPGASVADADTKPVDPEWKTITVASGDTLSTVFTKAGLSTSAMHDMLTSSKDAKRFTHLKVGQEVKLKLDPKGELQALRVKQSELETIGLDKTDKGYSFKREKAQIDLHTAYAHGRITSSLFVAGRNAGLPYNLVTSLSNIFGYDIDFALDLREGDEFDVIYEQHKVNGKQVATGNILAARFVNRGKTYTAVRYTNKQGNTSYYRADGSSMRKAFIRTPVDFARISSRFSLGRRHPILNKIRAHKGVDYAAPIGTPIKATGDGKILEAGRKGGYGNAVVIQHGQRYRTIYGHMSRFAKGIRAGTSVKQGQIIGYVGMTGLATGPHLHYEFQINGRHVDPLSAKLPMADPLGGADRKRFMAQTQPMIARMDQEKKTLLALNKQREGHHHHHH | soluble
MSLFRFMKYKLFIDFEFNILDDNKNKPKEYNGAELISIGGILVDNEFNTIDNYYSLVKPKYNKILSNKCKNLTKLNQLDINNAPNLLYVMDDFYKWFCKFDDVTIYNWGDFDITGLLTSFRVYKYTGKCLELFNMMIDIQPFISQHITYNNRILSKQISLLNMKKIFSVEGDIKHNSLSDAVDLMNVCKCFFFNSPKNIDILEELYNKLPALKTEGHHHHHH | soluble
MSLFTGYGNCYRLDALELAAEHGHTMQHWTFKTIEHFRSILANPEFPCLFGRKAVNGETCHILFARAEQLADDIAQGLANYVRTVAPIAPKQRIGSPLVVFLETAAGSSLAEQQALAWKVLRGVHARDPHPWPQGIPTDPDDTGWSFCYAGMPLFINMNFPGHQQMKSRNLGQHITFVINPRENFDEVANANTESGKRIRERIRERVHHYNDGVVPDTLGFFGDTDNYEWKQYQLQEAGSLNPSRCPFHAHAAHQPTPDILIENEGHHHHHH | not soluble
MSLFVEALKRQNPALISAALSLWQQGKIAPDSWVIDVDQILENGKRLIETARLYGIELYLMTKQFGRNPWLAEKLLALGYSGIVAVDYKEARVMRRAGLPVAHQGHLVQIPCHQVADAVEQGTDVITVFTLDKAREVSAAAVKAGRIQSVLLKVYSDDDFLYPGQESGFALKVLPEIVAEIQNLPGLHLAGLTHFPCLLWDEAVGKVLPTPNLHTLIQARDQLAKSGIALEQLNAPSATSCTSLPLLAQYGVTHAEPGHALTGTIPANQQGDQPERIAMLWLSEISHHFRGDSYCYGGGYYRRGHAQHALVFTPENQKITETNLKTVDDSSIDYTLPLAGEFPVSSAVVLCFRTQIFVTRSDVVLVSGIHRGEPEIVGRYDSLGNSLGAEGHHHHHH | soluble
